The labels stand for the following.
B1: r4_43_TrROS_Hall (parent)
chain: DLVTIKVPLENLEEIKKAAEKAGFKIVSISYDKENKEVTIVIEKKK

In the data set the parent is B1. Kind of data set: folding stability dG (cDNA display proteolysis); higher = more stable. Particulars: PBS, room temperature.
As for DLVTIKVPLENLEEIKKAAEKAGFKIVSISYDKENKQVTIVIEKKK, the “folding stability dG” value was found to be 3.59 kcal/mol.

As to DLVTIKVPLENLEEIKKAAEKAGFKIVSISYDKENKAVTIVIEKKK, the “folding stability dG” value came out at 3.75 kcal/mol. Consider DLVTIKVPLENLEEIKKAAEKAGFKIVSISYDKENKKVTIVIEKKK, for which the “folding stability dG” value worked out at 3.45 kcal/mol. The value for DLVTIKVPLENLEEIKKAAEKAGFKIVSISYDKENKNVTIVIEKKK was 3.62 kcal/mol; that for DLVTIKVPLENLEEIKKAAEKAGFKIVSISYDKENKIVTIVIEKKK was 3.85 kcal/mol.

For DLVTIKVPLENLEEIKKAAEKAGFKIVSISYDKENKLVTIVIEKKK, the “folding stability dG” value was 3.62 kcal/mol.

Consider DLVTIKVPLENLEEIKKAAEKAGFKIVSISYDKENKMVTIVIEKKK, for which the “folding stability dG” value worked out at 3.64 kcal/mol. The value for DLVTIKVPLENLEEIKKAAEKAGFKIVSISYDKENKPVTIVIEKKK was 2.62 kcal/mol; that for DLVTIKVPLENLEEIKKAAEKAGFKIVSISYDKENKCVTIVIEKKK was 3.8 kcal/mol. Turning to DLVTIKVPLENLEEIKKAAEKAGFKIVSISYDKENKGVTIVIEKKK, the “folding stability dG” value turned out to be 3.72 kcal/mol. Regarding DLVTIKVPLENLEEIKKAAEKAGFKIVSISYDKENKDVTIVIEKKK, the “folding stability dG” value was 3.49 kcal/mol.

On to DLVTIKVPLENLEEIKKAAEKAGFKIVSISYDKENKHVTIVIEKKK, for which the “folding stability dG” value turned out to be 3.86 kcal/mol. The value for DLVTIKVPLENLEEIKKAAEKAGFKIVSISYDKENKRVTIVIEKKK was 3.53 kcal/mol; that for DLVTIKVPLENLEEIKKAAEKAGFKIVSISYDKENKSVTIVIEKKK was 3.81 kcal/mol. With DLVTIKVPLENLEEIKKAAEKAGFKIVSISYDKENKFVTIVIEKKK, the “folding stability dG” value came out at 3.93 kcal/mol. With DLVTIKVPLENLEEIKKAAEKAGFKIVSISYDKENKTVTIVIEKKK, the “folding stability dG” value was 3.88 kcal/mol. The value for DLVTIKVPLENLEEIKKAAEKAGFKIVSISYDKENWEVTIVIEKKK was 3.66 kcal/mol; that for DLVTIKVPLENLEEIKKAAEKAGFKIVSISYDKENMEVTIVIEKKK was 3.22 kcal/mol; that for DLVTIKVPLENLEEIKKAAEKAGFKIVSISYDKENFEVTIVIEKKK was 3.48 kcal/mol. The result for DLVTIKVPLENLEEIKKAAEKAGFKIVSISYDKENDEVTIVIEKKK reads 3.28 kcal/mol; that for DLVTIKVPLENLEEIKKAAEKAGFKIVSISYDKENREVTIVIEKKK, 3.88 kcal/mol. The result for DLVTIKVPLENLEEIKKAAEKAGFKIVSISYDKENYEVTIVIEKKK reads 3.61 kcal/mol; that for DLVTIKVPLENLEEIKKAAEKAGFKIVSISYDKENLEVTIVIEKKK, 3.71 kcal/mol. On to DLVTIKVPLENLEEIKKAAEKAGFKIVSISYDKENVEVTIVIEKKK, for which the “folding stability dG” value was determined as 3.32 kcal/mol. The result for DLVTIKVPLENLEEIKKAAEKAGFKIVSISYDKENHEVTIVIEKKK reads 3.4 kcal/mol. Consider DLVTIKVPLENLEEIKKAAEKAGFKIVSISYDKENQEVTIVIEKKK, for which the “folding stability dG” value was found to be 3.48 kcal/mol.

With DLVTIKVPLENLEEIKKAAEKAGFKIVSISYDKENTEVTIVIEKKK, the “folding stability dG” value is 3.48 kcal/mol. The result for DLVTIKVPLENLEEIKKAAEKAGFKIVSISYDKENAEVTIVIEKKK reads 3.57 kcal/mol.

As for DLVTIKVPLENLEEIKKAAEKAGFKIVSISYDKENNEVTIVIEKKK, the “folding stability dG” value is 3.51 kcal/mol. With DLVTIKVPLENLEEIKKAAEKAGFKIVSISYDKENSEVTIVIEKKK, the “folding stability dG” value was 3.46 kcal/mol.

On to DLVTIKVPLENLEEIKKAAEKAGFKIVSISYDKENCEVTIVIEKKK, for which the “folding stability dG” value worked out at 3.19 kcal/mol. The result for DLVTIKVPLENLEEIKKAAEKAGFKIVSISYDKENGEVTIVIEKKK reads 3.64 kcal/mol; that for DLVTIKVPLENLEEIKKAAEKAGFKIVSISYDKENEEVTIVIEKKK, 3.22 kcal/mol; that for DLVTIKVPLENLEEIKKAAEKAGFKIVSISYDKENPEVTIVIEKKK, 3.39 kcal/mol. On to DLVTIKVPLENLEEIKKAAEKAGFKIVSISYDKENIEVTIVIEKKK, for which the “folding stability dG” value was found to be 3.54 kcal/mol. Regarding DLVTIKVPLENLEEIKKAAEKAGFKIVSISYDKERKEVTIVIEKKK, the “folding stability dG” value turned out to be 3.98 kcal/mol. The value for DLVTIKVPLENLEEIKKAAEKAGFKIVSISYDKEFKEVTIVIEKKK was 3.5 kcal/mol.

For DLVTIKVPLENLEEIKKAAEKAGFKIVSISYDKELKEVTIVIEKKK, the “folding stability dG” value was determined as 3.47 kcal/mol. The result for DLVTIKVPLENLEEIKKAAEKAGFKIVSISYDKEAKEVTIVIEKKK reads 3.24 kcal/mol; that for DLVTIKVPLENLEEIKKAAEKAGFKIVSISYDKEHKEVTIVIEKKK, 3.54 kcal/mol.

For DLVTIKVPLENLEEIKKAAEKAGFKIVSISYDKEIKEVTIVIEKKK, the “folding stability dG” value amounted to 3.52 kcal/mol. Consider DLVTIKVPLENLEEIKKAAEKAGFKIVSISYDKEQKEVTIVIEKKK, for which the “folding stability dG” value is 3.54 kcal/mol.

Consider DLVTIKVPLENLEEIKKAAEKAGFKIVSISYDKEGKEVTIVIEKKK, for which the “folding stability dG” value was found to be 3.61 kcal/mol. The value for DLVTIKVPLENLEEIKKAAEKAGFKIVSISYDKEDKEVTIVIEKKK was 3.73 kcal/mol; that for DLVTIKVPLENLEEIKKAAEKAGFKIVSISYDKEVKEVTIVIEKKK was 3.17 kcal/mol. The value for DLVTIKVPLENLEEIKKAAEKAGFKIVSISYDKETKEVTIVIEKKK was 3.4 kcal/mol; that for DLVTIKVPLENLEEIKKAAEKAGFKIVSISYDKESKEVTIVIEKKK was 3.55 kcal/mol; that for DLVTIKVPLENLEEIKKAAEKAGFKIVSISYDKEEKEVTIVIEKKK was 3.47 kcal/mol. In the case of DLVTIKVPLENLEEIKKAAEKAGFKIVSISYDKEWKEVTIVIEKKK, the “folding stability dG” value stood at 3.75 kcal/mol. DLVTIKVPLENLEEIKKAAEKAGFKIVSISYDKEKKEVTIVIEKKK: the “folding stability dG” value turned out to be 3.17 kcal/mol. The value for DLVTIKVPLENLEEIKKAAEKAGFKIVSISYDKEYKEVTIVIEKKK was 3.72 kcal/mol. The value for DLVTIKVPLENLEEIKKAAEKAGFKIVSISYDKEPKEVTIVIEKKK was 3.2 kcal/mol; that for DLVTIKVPLENLEEIKKAAEKAGFKIVSISYDKEMKEVTIVIEKKK was 3.93 kcal/mol; that for DLVTIKVPLENLEEIKKAAEKAGFKIVSISYDKVNKEVTIVIEKKK was 3.72 kcal/mol.

Take DLVTIKVPLENLEEIKKAAEKAGFKIVSISYDKYNKEVTIVIEKKK: the “folding stability dG” value was 3.81 kcal/mol. As for DLVTIKVPLENLEEIKKAAEKAGFKIVSISYDKWNKEVTIVIEKKK, the “folding stability dG” value was determined as 3.96 kcal/mol.

(Values after the MegaScale stability set (Tsuboyama et al. 2023).)
